From patent US20190345228A1 (DUKE UNIVERSITY, published 2019)

Target: TNF-related apoptosis-inducing ligand receptor 2 (TRAILR-2) (human, UniProt O14763 56-440)
Assay: cell-based or functional assay

Binder	EC50, cell viability assay on Colo205 cells (concentration required to kill 50% of the cells) [nM]
ELPa-(Tn3)6 (designed binder) VGVPGVGVPGVGVPGVGVPGVGVPGVGVPGVGVPGVGVPGVGVPGVGVPGVGVPGVGVPGVGVPGVGVPGVGVPGVGVPGVGVPGVGVPGVGVPGVGVPGVGVPGVGVPGVGVPGVGVPGVGVPGVGVPGVGVPGVGVPGVGVPGVGVPGVGVPGVGVPGVGVPGVGVPGVGVPGVGVPGVGVPGVGVPGVGVPGVGVPGVGVPGVGVPGVGVPGVGVPGVGVPGVGVPGVGVPGVGVPGVGVPGVGVPGVGVPGVGVPGVGVPGVGVPGVGVPGVGVPGVGVPGVGVPGVGVPGVGVPGVGVPGVGVPGVGVPGVGVPGVGVPGVGVPGVGVPGVGVPGVGVPGVGVPGVGVPGVGVPGVGVPGVGVPGVGVPGVGVPGVGVPGVGVPGVGVPGVGVPGVGVPGVGVPGVGVPGVGVPGVGVPGVGVPGVGVPGVGVPGVGVPGVGVPGVGVPGVGVPGVGVPGVGVPGVGVPGVGVPGVGVPGVGVPGVGVPGVGVPGVGVPGVGVPGVGVPGVGVPGVGVPGVGVPGVGVPGVGVPGVGVPGVGVPGVGVPGVGVPGVGVPGVGVPGVGVPGVGVPGVGVPGVGVPGVGVPGVGVPGAIEVKDVTDTTALITWAKPWVDPPPLWGCELTYGIKDVPGDRTTIDLQQKHTAYSIGNLKPDTEYEVSLICFDPYGMRSKPAKETFTTGGGGSGGGGSGGGGSGAIEVKDVTDTTALITWAKPWVDPPPLWGCELTYGIKDVPGDRTTIDLQQKHTAYSIGNLKPDTEYEVSLICFDPYGMRSKPAKETFTTGGGGSGGGGSGGGGSGAIEVKDVTDTTALITWAKPWVDPPPLWGCELTYGIKDVPGDRTTIDLQQKHTAYSIGNLKPDTEYEVSLICFDPYGMRSKPAKETFTTGGGGSGGGGSGGGGSGAIEVKDVTDTTALITWAKPWVDPPPLWGCELTYGIKDVPGDRTTIDLQQKHTAYSIGNLKPDTEYEVSLICFDPYGMRSKPAKETFTTGGGGSGGGGSGGGGSGAIEVKDVTDTTALITWAKPWVDPPPLWGCELTYGIKDVPGDRTTIDLQQKHTAYSIGNLKPDTEYEVSLICFDPYGMRSKPAKETFTTGGGGSGGGGSGGGGSGAIEVKDVTDTTALITWAKPWVDPPPLWGCELTYGIKDVPGDRTTIDLQQKHTAYSIGNLKPDTEYEVSLICFDPYGMRSKPAKETFTTGGGGSGGGGSGGGGS	0.00078
(Tn3)6 (designed binder) GAIEVKDVTDTTALITWAKPWVDPPPLWGCELTYGIKDVPGDRTTIDLQQKHTAYSIGNLKPDTEYEVSLICFDPYGMRSKPAKETFTTGGGGSGGGGSGGGGSGAIEVKDVTDTTALITWAKPWVDPPPLWGCELTYGIKDVPGDRTTIDLQQKHTAYSIGNLKPDTEYEVSLICFDPYGMRSKPAKETFTTGGGGSGGGGSGGGGSGAIEVKDVTDTTALITWAKPWVDPPPLWGCELTYGIKDVPGDRTTIDLQQKHTAYSIGNLKPDTEYEVSLICFDPYGMRSKPAKETFTTGGGGSGGGGSGGGGSGAIEVKDVTDTTALITWAKPWVDPPPLWGCELTYGIKDVPGDRTTIDLQQKHTAYSIGNLKPDTEYEVSLICFDPYGMRSKPAKETFTTGGGGSGGGGSGGGGSGAIEVKDVTDTTALITWAKPWVDPPPLWGCELTYGIKDVPGDRTTIDLQQKHTAYSIGNLKPDTEYEVSLICFDPYGMRSKPAKETFTTGGGGSGGGGSGGGGSGAIEVKDVTDTTALITWAKPWVDPPPLWGCELTYGIKDVPGDRTTIDLQQKHTAYSIGNLKPDTEYEVSLICFDPYGMRSKPAKETFTTGGGGSGGGGSGGGGS	0.0016
(Tn3)4 (designed binder) GAIEVKDVTDTTALITWAKPWVDPPPLWGCELTYGIKDVPGDRTTIDLQQKHTAYSIGNLKPDTEYEVSLICFDPYGMRSKPAKETFTTGGGGSGGGGSGGGGSGAIEVKDVTDTTALITWAKPWVDPPPLWGCELTYGIKDVPGDRTTIDLQQKHTAYSIGNLKPDTEYEVSLICFDPYGMRSKPAKETFTTGGGGSGGGGSGGGGSGAIEVKDVTDTTALITWAKPWVDPPPLWGCELTYGIKDVPGDRTTIDLQQKHTAYSIGNLKPDTEYEVSLICFDPYGMRSKPAKETFTTGGGGSGGGGSGGGGSGAIEVKDVTDTTALITWAKPWVDPPPLWGCELTYGIKDVPGDRTTIDLQQKHTAYSIGNLKPDTEYEVSLICFDPYGMRSKPAKETFTTGGGGSGGGGSGGGGS	0.04
ELPa-(Tn3)4 (designed binder) VGVPGVGVPGVGVPGVGVPGVGVPGVGVPGVGVPGVGVPGVGVPGVGVPGVGVPGVGVPGVGVPGVGVPGVGVPGVGVPGVGVPGVGVPGVGVPGVGVPGVGVPGVGVPGVGVPGVGVPGVGVPGVGVPGVGVPGVGVPGVGVPGVGVPGVGVPGVGVPGVGVPGVGVPGVGVPGVGVPGVGVPGVGVPGVGVPGVGVPGVGVPGVGVPGVGVPGVGVPGVGVPGVGVPGVGVPGVGVPGVGVPGVGVPGVGVPGVGVPGVGVPGVGVPGVGVPGVGVPGVGVPGVGVPGVGVPGVGVPGVGVPGVGVPGVGVPGVGVPGVGVPGVGVPGVGVPGVGVPGVGVPGVGVPGVGVPGVGVPGVGVPGVGVPGVGVPGVGVPGVGVPGVGVPGVGVPGVGVPGVGVPGVGVPGVGVPGVGVPGVGVPGVGVPGVGVPGVGVPGVGVPGVGVPGVGVPGVGVPGVGVPGVGVPGVGVPGVGVPGVGVPGVGVPGVGVPGVGVPGVGVPGVGVPGVGVPGVGVPGVGVPGVGVPGVGVPGVGVPGVGVPGVGVPGVGVPGVGVPGVGVPGVGVPGVGVPGVGVPGVGVPGVGVPGVGVPGVGVPGGAIEVKDVTDTTALITWAKPWVDPPPLWGCELTYGIKDVPGDRTTIDLQQKHTAYSIGNLKPDTEYEVSLICFDPYGMRSKPAKETFTTGGGGSGGGGSGGGGSGAIEVKDVTDTTALITWAKPWVDPPPLWGCELTYGIKDVPGDRTTIDLQQKHTAYSIGNLKPDTEYEVSLICFDPYGMRSKPAKETFTTGGGGSGGGGSGGGGSGAIEVKDVTDTTALITWAKPWVDPPPLWGCELTYGIKDVPGDRTTIDLQQKHTAYSIGNLKPDTEYEVSLICFDPYGMRSKPAKETFTTGGGGSGGGGSGGGGSGAIEVKDVTDTTALITWAKPWVDPPPLWGCELTYGIKDVPGDRTTIDLQQKHTAYSIGNLKPDTEYEVSLICFDPYGMRSKPAKETFTTGGGGSGGGGSGGGGS	0.08
